In data set [1] the test system is AncGR1 DBD (reconstructed ancestral). The data set can be described thus: fluorescence polarization. The note with it: FP: 20 mM Tris-HCl pH 7.4, 150 mM NaCl, 5% glycerol, 10 nM FAM-DNA, 1 nM-50 uM DBD, temperature not stated.
Data set [2] relates to AncCR DBD (reconstructed ancestral). The data set can be described thus: fluorescence polarization. The note with it: FP: 20 mM Tris-HCl pH 7.4, 150 mM NaCl, 5% glycerol, 10 nM FAM-DNA, 1 nM-50 uM DBD, temperature not stated.
Data set [3] has as its system AncSR2 DBD (reconstructed ancestral). The data set can be described thus: fluorescence polarization. The note with it: FP: 20 mM Tris-HCl pH 7.4, 150 mM NaCl, 5% glycerol, 10 nM FAM-DNA, 1 nM-50 uM DBD, temperature not stated.
Data set [4] concerns the molecule itself. Description: crystal structure; GR DBD with 5mC-GBS or pre-GBS DNA duplex, 2:1 protein:DNA molar ratio; hanging drop vapor diffusion, 50 mM sodium cacodylate pH 6.5, 80 mM calcium chloride, 1% glycerol, 7% or 8.5% PEG 400; dimer of DBD on DNA in the asymmetric unit.
The target of data set [5] is T1, GR DBD (human, UniProt P04150 418-493). The data set can be described thus: X-ray crystallography (2.0 A); DBD dimer; FP: 20 mM Tris-HCl pH 7.4, 150 mM NaCl, 5% glycerol; 10 nM FAM-DNA, 1 nM-50 uM DBD; temperature not stated. The conditions noted are these: protein: recombinant; tags: 6xHis (pMCSG7 vector); chain copies: 2.
T1 sequence (P04150 418-493): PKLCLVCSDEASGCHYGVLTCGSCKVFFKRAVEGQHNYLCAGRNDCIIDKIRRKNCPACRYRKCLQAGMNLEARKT
Data set [6] deals with T1, GR DBD. Description: fluorescence polarization; FP: 20 mM Tris-HCl pH 7.4, 150 mM NaCl, 5% glycerol; 10 nM FAM-DNA, 1 nM-50 uM DBD; temperature not stated. The note with it: protein: recombinant, tags: 6xHis (pMCSG7 vector), chain copies: 2, label: 5' FAM on strand 1. For orientation: In fluorescence polarisation assays a small probe gives low polarisation when free and higher when bound to something large.

The target of data set [7] is T1, GR DBD. The data set can be described thus: X-ray crystallography (2.5 A); DBD dimer; FP: 20 mM Tris-HCl pH 7.4, 150 mM NaCl, 5% glycerol; 10 nM FAM-DNA, 1 nM-50 uM DBD; temperature not stated. The note with it: protein: recombinant; tags: 6xHis (pMCSG7 vector); chain copies: 2.
Setting [8] is: 5mC at CpG, methyl at mC10 of AGAACGGAGCGTTCT (C12 of strand) seen in structure, other positions in Figure 3A.

For “CCAGAACGGAGCGTTCTGA (double strand) [5mC-GBS]”, the Kd (usually the concentration at which binding is half-saturated) in data set [1] (setting [8]) is 78 nM; in data set [2] (setting [8]) it was 318 nM; in data set [3] (setting [8]), 443 nM.
Regarding “CCAGAACGGAGCGTTCTGA / TCAGAACGCTCCGTTCTG [pre-GBS]”, the Kd in data set [1] came to 139 nM; in data set [2], 575 nM; in data set [3], 811 nM.

B1: human glucocorticoid receptor DNA-binding domain (domain or fragment)
chain: PPKLCLVCSDEASGCHYGVLTCGSCKVFFKRAVEGQHNYLCAGRNDCIIDKIRRKNCPACRYRKCLQAGMNLEAR
notes: Cloned into the pMCSG7 vector; In the crystals two DBD copies sit on one DNA duplex (5mC-GBS or pre-GBS); also called GR DBD; GR; source: E. coli BL21 (DE3) pLysS, purified (His-Trap, gel filtration)
For B1, the stoichiometry N – broadly, the number of molecules, sites or subunits per partner or assembly – in data set [4] is 2.

B2: 5mC-GBS crystal DNA (dsDNA)
DNA 1: CCAGAACGGAGCGTTCTG
DNA 2: TCAGAACGCTCCGTTCTG
modifications: 5mC at CpG (mC10)
With B2, the binding result with GR DBD [5] is “binds”.

B3: 5mC-GBS (dsDNA)
DNA 1: CCAGAACGGAGCGTTCTGA
DNA 2: TCAGAACGCTCCGTTCTGG
modifications: 5mC at CpG; methyl at mC10 of AGAACGGAGCGTTCT (C12 of strand) seen in structure, other positions in Figure 3A
For the molecule B3, the Kd in the data set with GR DBD [6] (blunt) turned out to be 131 nM.

B4: pre-GBS (dsDNA)
DNA 1: CCAGAACGGAGCGTTCTGA
DNA 2: TCAGAACGCTCCGTTCTG
In the case of B4, the Kd in the data set with GR DBD [6] (as printed the second strand lacks its 3' terminal G (5' overhang 1 nt on strand 1), possibly a misprint) stood at 206 nM.

B5: pre-GBS crystal DNA (dsDNA)
DNA 1: CCAGAACGGAGCGTTCTG
DNA 2: TCAGAACGCTCCGTTCTG
B5: the binding result in the data set with GR DBD [7] was “binds”.

B6: GBS (dsDNA)
DNA 1: TGAGAACAGAGTGTTCTTT
DNA 2: AAAGAACACTCTGTTCTCA
With B6, the Kd in the data set with GR DBD [6] (blunt) came out at 73 nM.

The record behind these values is paper PMC8421226, “Structural basis for glucocorticoid receptor recognition of both unmodified and methylated binding sites, precursors of a modern recognition element” (Nucleic Acids Research, 2021).
